Residue numbers refer to the chain shown, from its start. Numbers in names are those of the source.

10 molecules from patent US20220340682A1 (Sanofi, published 2022) can be followed below.

Assay [1] has as its target T1, human CEACAM5 expressed on the surface of tumor cells (human, UniProt P06731 35-685).
T1 sequence: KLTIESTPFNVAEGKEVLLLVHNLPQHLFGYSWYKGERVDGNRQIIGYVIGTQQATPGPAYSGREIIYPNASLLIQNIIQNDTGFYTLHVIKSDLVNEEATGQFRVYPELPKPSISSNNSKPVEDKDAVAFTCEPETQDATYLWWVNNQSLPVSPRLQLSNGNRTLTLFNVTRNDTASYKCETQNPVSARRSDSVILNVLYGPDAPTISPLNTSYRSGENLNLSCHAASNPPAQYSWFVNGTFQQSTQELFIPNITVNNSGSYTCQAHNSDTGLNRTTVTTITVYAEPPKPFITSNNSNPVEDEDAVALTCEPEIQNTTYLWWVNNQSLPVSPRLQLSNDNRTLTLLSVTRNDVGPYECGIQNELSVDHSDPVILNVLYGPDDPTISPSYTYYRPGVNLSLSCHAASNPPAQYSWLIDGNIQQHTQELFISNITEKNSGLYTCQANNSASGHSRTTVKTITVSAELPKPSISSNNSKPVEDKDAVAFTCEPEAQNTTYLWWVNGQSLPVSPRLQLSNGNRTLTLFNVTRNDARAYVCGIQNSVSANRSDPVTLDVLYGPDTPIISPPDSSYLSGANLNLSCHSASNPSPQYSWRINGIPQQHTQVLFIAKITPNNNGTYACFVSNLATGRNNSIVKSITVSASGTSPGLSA
Briefly: cell-based or functional assay.

Assay [2] concerns the target T2, hCEACAM5, human CEACAM5 ECD (35-685) (human, UniProt P06731 35-685).
T2 construct: produced in HEK293; also called human CEACAM5 protein; human CEACAM5 extracellular domain
T2 sequence: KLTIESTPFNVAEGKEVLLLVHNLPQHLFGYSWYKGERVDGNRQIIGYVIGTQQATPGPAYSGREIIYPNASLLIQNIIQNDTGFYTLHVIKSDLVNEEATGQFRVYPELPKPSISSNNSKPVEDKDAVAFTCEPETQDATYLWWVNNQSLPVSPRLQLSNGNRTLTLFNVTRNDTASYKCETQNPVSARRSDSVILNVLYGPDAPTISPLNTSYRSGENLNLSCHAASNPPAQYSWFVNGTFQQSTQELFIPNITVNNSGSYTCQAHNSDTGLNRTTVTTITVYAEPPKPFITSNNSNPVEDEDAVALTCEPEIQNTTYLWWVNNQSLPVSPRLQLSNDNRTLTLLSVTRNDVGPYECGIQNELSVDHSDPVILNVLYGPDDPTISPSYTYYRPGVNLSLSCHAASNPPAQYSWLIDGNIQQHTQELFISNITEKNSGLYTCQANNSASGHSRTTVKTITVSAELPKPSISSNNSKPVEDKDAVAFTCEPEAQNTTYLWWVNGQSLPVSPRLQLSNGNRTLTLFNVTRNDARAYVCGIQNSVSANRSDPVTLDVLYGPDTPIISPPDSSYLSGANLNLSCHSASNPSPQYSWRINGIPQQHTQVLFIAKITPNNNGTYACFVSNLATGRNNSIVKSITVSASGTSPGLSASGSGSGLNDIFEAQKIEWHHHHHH
Briefly: ELISA, chimeric mAb. A general note: ELISA stands for enzyme-linked immunosorbent assay.

The target of assay [3] is T3, cCEACAM5, M. fascicularis CEACAM5 ECD (35-688) (Macaca fascicularis).
T3 construct: ECD followed by a 24 amino acid extension containing a His-Tag; also called cynomolgus CEACAM5; monkey CEACAM5
T3 chain: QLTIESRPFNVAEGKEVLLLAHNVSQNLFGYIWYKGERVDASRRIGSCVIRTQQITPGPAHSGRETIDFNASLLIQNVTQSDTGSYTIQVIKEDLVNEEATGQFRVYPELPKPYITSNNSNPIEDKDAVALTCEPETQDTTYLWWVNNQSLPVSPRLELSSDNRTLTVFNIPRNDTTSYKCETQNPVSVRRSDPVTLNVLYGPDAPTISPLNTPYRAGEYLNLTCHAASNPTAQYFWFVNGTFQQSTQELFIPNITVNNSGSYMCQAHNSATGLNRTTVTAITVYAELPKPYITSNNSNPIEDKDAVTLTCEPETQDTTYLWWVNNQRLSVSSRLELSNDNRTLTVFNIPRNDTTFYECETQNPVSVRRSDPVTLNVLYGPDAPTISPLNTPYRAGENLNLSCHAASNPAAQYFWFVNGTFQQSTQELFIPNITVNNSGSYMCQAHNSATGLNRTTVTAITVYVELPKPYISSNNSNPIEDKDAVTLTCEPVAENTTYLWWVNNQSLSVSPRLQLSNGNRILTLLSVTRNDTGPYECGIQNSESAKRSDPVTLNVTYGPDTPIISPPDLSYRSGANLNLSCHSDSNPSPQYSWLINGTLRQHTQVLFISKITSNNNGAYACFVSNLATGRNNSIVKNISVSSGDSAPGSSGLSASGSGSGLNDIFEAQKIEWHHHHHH
Put plainly: ELISA, chimeric mAb.

Assay [4] addresses T2, hCEACAM5, human CEACAM5 ECD (35-685). Briefly: ELISA, coated CEACAM5. Here is the method:
(§1) All CEACAM5-specific mAbs were assessed for their ability to bind human and primate CEACAM5 protein by ELISA. Plates were coated with human or primate CEACAM5 protein, anti-hCEACAM5 mAbs were added to the plate and detected with rabbit anti-mouse IgG conjugated with horseradish peroxidase (Sigma; # A9044). The antibody binding was visualized by adding TMB-H2O2 buffer and read at a wavelength of 450 nm.

Assay [5] deals with T3, cCEACAM5, M. fascicularis CEACAM5 ECD …. Briefly: ELISA, coated CEACAM5. As to the method:
as §1

Assay [6] deals with T1, human CEACAM5 expressed on the surface …. Put plainly: flow cytometry on CR-IGR-034P primary colon tumor cells. As to the method: (§2) Advanced human primary colon tumor CR-IGR-034P (Julien et al., Clin Cancer Res Oct. 1, 2012 18:5314-5328) was obtained from Patient-derived xenograft in mice. Tumor CR-IGR-034P was enzymatically dissociated using collagenase Type IV (Invitrogen; #17104-019) and deoxyribonuclease I (Invitrogen; #18047-019) for 1 h at […], Cell viability was estimated by Viacount application using Guava® easyCyte™ 8HT Flow Cytometry System. […] 100 μL/well of goat anti-mouse IgG conjugated with Alexa647 (Invitrogen; # A2135) or goat anti-human IgG conjugated with Alexa488 (Invitrogen; # A11013) was added for 45 min at 4° C. and washed three times with PBS 1% BSA. The antibody binding was evaluated after centrifugation and resuspension of cells by adding 200 pliwell PBS 1% BSA and read using Guava® easyCyte™ 8HT Flow Cytometry System. Apparent KD and EC50 values were estimated using BIOST@T-BINDING and BIOST@T-SPEED softwares, respectively.
Background: In flow cytometry, cells or beads pass a laser one at a time.

Assay [7] shares this target. Put plainly: apparent KD, flow cytometry on CR-IGR-034P primary colon tumor cells. As to the method:
as §2

B1: MAb5-SPDB-DM4 (other)
VH: ELQLVESGGVLVKPGGSLKLSCAASGFAFSSYDMSWVRQTPEKRLEWVTYINSGGGITYYPDTVKGRFTISRDNARNTLYLQMSSLKSEDTAIYYCTAHYFGSSGPFAYWGQGTLVTVSA
VL: DIQMTQSPASLSASVGETVTITCRASENIYSYLAWYQQKQGKSPQLLVYNAKTLTEGVPSRFSGSGSGTQFSLKINSLQPEDFGSYYCQHHYGTPFTFGSGTKLEIK
modifications: maytansinoid DM4 conjugated through SPDB linker; attachment residues not stated
For B1, the “Cytotoxic activity IC50 (nM) on MKN45 cells” value (from here on “Cytotoxic activity IC50 (nM)”) in assay [1] was found to be 0.24 nM.

B2: MAb2-SPDB-DM4 (other)
VH: EVQLQESGGVLVKPGGSLKLSCAASGFVFSSYDMSWVRQTPEKRLEWVAYISSGGGITYFPDTVQGRFTVSRDNAKNTLYLQMNSLKSEDTAIYYCAAHYFGSSGPFAYWGQGTLVTVSA
VL: B1 VL with Y30F, A51T, T55A
modifications: maytansinoid DM4 conjugated through SPDB linker; attachment residues not stated
For B2, the “Cytotoxic activity IC50 (nM)” value in assay [1] came to 0.14 nM.

B3: MAb4-SPDB-DM4 (other)
VH: EVQLVESGGGLVKPGGSLKLSCAASGFTFSSYDMSWVRQTPEKRLEWVAFISSYGGRTYYADTVKGRFTISRDNAKNTLYLQMSSLKSEDTAMFYCAAHYFGTSGPFAYWGQGTLVTVSA
VL: B1 VL with L33F, T53I, T55A, S85T, T94I, I106L
modifications: maytansinoid DM4 conjugated through SPDB linker; attachment residues not stated
Turning to B3, the “Cytotoxic activity IC50 (nM)” value in assay [1] came out at 0.96 nM.

B4: chMAb5 (antibody, human IgG1, kappa, V domains shown)
VH: B1 VH
VL: DIQMTQSPASLSASVGETVTITCRASENIYSYLAWYQQKQGKSPQLLVYNAKTLTEGVPSRFSGSGSGTQFSLKINSLQPEDFGSYYCQHHYGTPFTFGSGTKLEIKR
notes: Chimeric, human IgG1 / Ckappa
As a reminder, the EC50 is the concentration needed to bring the measured effect to its halfway point. A lower EC50 goes with a more potent agent. Take B4: the figures for the EC50 in assay [2] and in assay [3] were 0.18 nM and 0.13 nM, respectively.

B5: antibody MAb2 (antibody, mouse IgG1, V domains shown)
VH: B2 VH
VL: B1 VL with Y30F, A51T, T55A
notes: Murine IgG1, kappa; Rows are tied to the label as printed
In the case of B5, the EC50 came out at 0.14 nM in assay [4], 0.07 nM in assay [5] and 0.53 nM in assay [6]. The “Ratio c/h (EC50 on cCEACAM5 against EC50 on hCEACAM5)” value in assay [5] came to 0.5. In addition, the Kd in assay [7] came to 0.38 nM.

B6: MAb1-SPDB-DM4 (other)
VH: EVMLVESGGGLVKPGGSLKLSCAASGFTFSSYAMSWVRQTPEKRLEWVATISSGGSYIYYLDSVKGRFTISRDNAKNTLYLQMSSLRSEDTAMYYCARPAYYGNPAMDYWGQGTSVTVSS
VL: DILMTQSQKFMSTSVGDRVSVTCKASQNVGTNVAWYQQKPGQSPKPLIYSASYRYSGVPDRFTGSGSGTDFTLTISNVQSEDLAEYFCQQYNSYPLYTFGGGTKLEIK
modifications: maytansinoid DM4 conjugated through SPDB linker; attachment residues not stated
For the molecule B6, in assay [1], the “Cytotoxic activity IC50 (nM)” value was 0.89 nM.

B7: chMAb1 (antibody, human IgG1, kappa, V domains shown)
VH: B6 VH
VL: DILMTQSQKFMSTSVGDRVSVTCKASQNVGTNVAWYQQKPGQSPKPLIYSASYRYSGVPDRFTGSGSGTDFTLTISNVQSEDLAEYFCQQYNSYPLYTFGGGTKLEIKR
notes: Chimeric, human IgG1 / Ckappa
For B7, the values for the EC50 in assay [2] and in assay [3] were 0.51 nM and 1.57 nM, respectively.

B8: MAb3-SPDB-DM4 (other)
VH: EVKLVESGGGLVKPGGSLTLPCAASGFTFSRYAMSWVRQTPEKRLEWVASISSGGDTYYPDSVKGRFTVSRDNARNILFLQMSSLRSEDTGMYYCARVNYYDSSFLDWWGQGTTLTVSS
VL: B6 VL with L3V, K9R, S14L, V15E, P46A, S93N
modifications: maytansinoid DM4 conjugated through SPDB linker; attachment residues not stated
For the molecule B8, the “Cytotoxic activity IC50 (nM)” value in assay [1] was 0.53 nM.

B9: chMab2K52R (antibody, human IgG1, kappa, V domains shown)
VH: B2 VH
VL: B4 VL with Y30F, A51T, K52R, T55A
notes: Chimeric MAb2 with K52R in CDR2-L
On to B9, for which the EC50 came to 0.11 nM in assay [2] and 0.15 nM in assay [3].

B10: chMAb4 (antibody, human IgG1, kappa, V domains shown)
VH: B3 VH
VL: B4 VL with L33F, T53I, T55A, S85T, T94I, I106L
notes: Chimeric, human IgG1 / Ckappa
In the case of B10, the EC50 came to 0.14 nM in assay [2] and 0.12 nM in assay [3].
